The data set deals with T1, UvrY-His6 (Escherichia coli O157:H7 (EHEC; EDL933?)) (UniProt P66798).
T1 sequence: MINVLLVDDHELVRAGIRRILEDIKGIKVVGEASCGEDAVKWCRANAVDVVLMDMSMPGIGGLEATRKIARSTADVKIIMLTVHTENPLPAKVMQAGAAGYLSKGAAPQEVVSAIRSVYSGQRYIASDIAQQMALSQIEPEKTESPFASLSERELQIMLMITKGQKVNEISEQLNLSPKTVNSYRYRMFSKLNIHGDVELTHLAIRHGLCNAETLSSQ
As to the kind of experiment: EMSA.

For the sequence “AGATTCATCTGCAGGCTCTGAAGTAAGTATACGTGTGAATATTATTGCTTGAAAAAGCGTATTGGATAATATATACAGTATATGTACTTTATGTACATTGCAACTATTTAAATAATATAATAGTTGCCTATGGGATAATTTGGTTATTTATAACCAGGTAAATGTCTAAATTAGACAAAAGGAGAAAGATCAATGGAAGCAGCAAATTTAAGTCCTTCTGGTGCAGTAATG (double strand) [PLEE2/3]”, the binding result is recorded as “no binding”.

Regarding “CATTAGCCATTGGAAACTCACGTAATCATTAATTATGAATATTCCATTAAATAGTACTGTACAACAGCTTCCTTTCTACTCTATTCTTAGACGATGTAAGTTCACCATATTTTTTCTCATTGTTCAACCACCAGGATGAATAAAATTTAAAAATGTTATCCTCATATAAAATAAAACTTCTCAATGGTGCGATGCG (double strand) [PLEE4]”, the binding result is recorded as “no binding”.

For “GGGTGCTACTTTACGCCTTTGCTTTAAACAAACAATCAACCGCCATCAGTATTTGCACATTTTCAGAGTTTTATATAAAAGCAATTAACTGATTTATATAGCTTATTTGACATGCATCGCAGAATTTTCTCTGCTATTTCGCATAAAGACTATCGGCAATGTCTCACAAAGCGTATGGCTTTTACTTACAACGCTCACGCCGAAAAATCCGCCTTTTATTATGGTTCAGGTATAATCGCCGCAAAGCTTTGACTGACGGAGACGACCGCTT (double strand) [PcsrC]”, the binding entry was “binds”.

In the case of “GTTATCGCAGGGAGCCACACAGCGTGTGTTGGACGCGACTCAGCTTTACCTTGGTGAGATTGGTTATTCACCACTGTTAACGGCCGAAGAAGAAGTTTATTTTGCGCGTCGCGCACTGCGTGGAGATGTCGCCTCTCGCCGCCGGATGATCGAGAGTAACTTGCGTCTGGTGGTAAAA (double strand) [rpoS coding region]”, the binding result is “no binding”.

(Values after paper PMC9916836.)
